Results on five molecules are retold here after patent US20240002497A1 (Merck Sharp & Dohme, published 2024).

For test [1], the target named is T1, huNav1.7α+β1 (human, UniProt Q15858 1-1988; Q07699 19-218).
T1 construct: also called huNav1.7-beta1; HEKa/β1
The experiment in a line: binding FACS, HEK293 cells. How it is done:
(§1) Binding of the ISVDs to cell-expressed Nav1.7α was detected via murine anti-Flag (Sigma, catalog #F1804). Briefly, cells were resuspended in FACS buffer (PBS, 10% FBS, NaN₃) and transferred to a 96-well V-bottom plate at 1×10^5 cells/well. Purified FLAG3-tagged ISVD was diluted in FACS buffer and added to the cells for 30 minutes at 4° C. […] Prior to the read-out, the samples were resuspended in 1 μg/mL propidium iodide (Sigma, catalog #P4170) to exclude dead cells. Between each step, the cells were centrifuged for 5 minutes at 200 grams and washed with 100 μL/well FACS buffer.
(§2) Crude periplasmic extracts containing ISVDs from phage display selections (as described above) were screened in FACS for binding to huNav1.7α but not to huNav1.5a. […] As used in Table 8, the drawings, and throughout the description, Navβ1, Navβ2, and Navβ3 are human homologs unless specifically identified otherwise.

For test [2], the target named is T2, huNav1.7α+β1-β2-β3 (human, UniProt Q15858 1-1988; Q07699 19-218; O60939 30-215; Q9NY72 23-215).
T2 construct: 5N11S variant; also called huNav1.7-beta1-beta2-beta3; huNav1.7α+Navβ1-Navβ2-Navβ3
The experiment in a line: binding FACS, CHO FlpIn cells. How it is done:
as §1, §2

Test [3] deals with T3, rhNav1.7α+β1-β2-β3 (rhesus monkey α subunit with human β …).
T3 construct: P2A cleaves it into α, β1, β2, β3; also called rhNav1.7-beta1-beta2-beta3
The experiment in a line: binding FACS, CHO FlpIn cells. How it is done:
as §1, §2

For test [4], the target named is T4, huNav1.5α+β1-β2-β3 (human, UniProt Q14524 1-2016; A5A6L6 19-218; O60939 30-215; Q2KI11 23-215).
T4 construct: in the cell P2A cleaves it into α, β1, β2, β3; also called huNav1.5-beta1-beta2-beta3
The experiment in a line: binding FACS, HEK FlpIn cells. How it is done:
as §1, §2

The target of test [5] is T5, huNav157chimera14+β1-β2-β3 (human, UniProt Q07699 19-218; O60939 30-215; Q9NY72 23-215).
T5 construct: HEK FlpIn line; also called huNav157 chimera 14-beta1-beta2-beta3; Nav157ch14-β1-β2-β3
The experiment in a line: binding FACS with purified FLAG3-HIS6 tagged ISVDs. How it is done:
as §1, §2

Test [6] has as its target T6, huNav1.3α (human, UniProt Q9NY46 1-2000).
T6 construct: also called huNav1.3 (alpha subunit)
The experiment in a line: binding FACS on stable huNav1.x paralog HEK293T cell lines.

Test [7] deals with T7, huNav1.4α (human, UniProt P35499 1-1836).
T7 construct: also called huNav1.4 (alpha subunit)
The description is as above.

For test [8], the target named is T8, huNav1.5α (human, UniProt Q14524 1-2016).
T8 construct: also called huNav1.5 (alpha subunit)
Described as above.

Test [9] deals with T9, huNav1.6α (human, UniProt Q9UQD0 1-1980).
T9 construct: also called huNav1.6 (alpha subunit)
Described as above.

The target in test [10] is T10, huNav1.8α (human, UniProt Q9Y5Y9 1-1956).
T10 construct: also called huNav1.8 (alpha subunit)
Described as above.

The target in test [11] is huNav1.1α (human, UniProt P35498 1-2009). The test is described as above.
The target in test [12] is T11, huNav1.2α (human, UniProt Q99250 1-2005).
T11 construct: also called huNav1.2 (alpha subunit)
T11 sequence (Q99250 whole entry): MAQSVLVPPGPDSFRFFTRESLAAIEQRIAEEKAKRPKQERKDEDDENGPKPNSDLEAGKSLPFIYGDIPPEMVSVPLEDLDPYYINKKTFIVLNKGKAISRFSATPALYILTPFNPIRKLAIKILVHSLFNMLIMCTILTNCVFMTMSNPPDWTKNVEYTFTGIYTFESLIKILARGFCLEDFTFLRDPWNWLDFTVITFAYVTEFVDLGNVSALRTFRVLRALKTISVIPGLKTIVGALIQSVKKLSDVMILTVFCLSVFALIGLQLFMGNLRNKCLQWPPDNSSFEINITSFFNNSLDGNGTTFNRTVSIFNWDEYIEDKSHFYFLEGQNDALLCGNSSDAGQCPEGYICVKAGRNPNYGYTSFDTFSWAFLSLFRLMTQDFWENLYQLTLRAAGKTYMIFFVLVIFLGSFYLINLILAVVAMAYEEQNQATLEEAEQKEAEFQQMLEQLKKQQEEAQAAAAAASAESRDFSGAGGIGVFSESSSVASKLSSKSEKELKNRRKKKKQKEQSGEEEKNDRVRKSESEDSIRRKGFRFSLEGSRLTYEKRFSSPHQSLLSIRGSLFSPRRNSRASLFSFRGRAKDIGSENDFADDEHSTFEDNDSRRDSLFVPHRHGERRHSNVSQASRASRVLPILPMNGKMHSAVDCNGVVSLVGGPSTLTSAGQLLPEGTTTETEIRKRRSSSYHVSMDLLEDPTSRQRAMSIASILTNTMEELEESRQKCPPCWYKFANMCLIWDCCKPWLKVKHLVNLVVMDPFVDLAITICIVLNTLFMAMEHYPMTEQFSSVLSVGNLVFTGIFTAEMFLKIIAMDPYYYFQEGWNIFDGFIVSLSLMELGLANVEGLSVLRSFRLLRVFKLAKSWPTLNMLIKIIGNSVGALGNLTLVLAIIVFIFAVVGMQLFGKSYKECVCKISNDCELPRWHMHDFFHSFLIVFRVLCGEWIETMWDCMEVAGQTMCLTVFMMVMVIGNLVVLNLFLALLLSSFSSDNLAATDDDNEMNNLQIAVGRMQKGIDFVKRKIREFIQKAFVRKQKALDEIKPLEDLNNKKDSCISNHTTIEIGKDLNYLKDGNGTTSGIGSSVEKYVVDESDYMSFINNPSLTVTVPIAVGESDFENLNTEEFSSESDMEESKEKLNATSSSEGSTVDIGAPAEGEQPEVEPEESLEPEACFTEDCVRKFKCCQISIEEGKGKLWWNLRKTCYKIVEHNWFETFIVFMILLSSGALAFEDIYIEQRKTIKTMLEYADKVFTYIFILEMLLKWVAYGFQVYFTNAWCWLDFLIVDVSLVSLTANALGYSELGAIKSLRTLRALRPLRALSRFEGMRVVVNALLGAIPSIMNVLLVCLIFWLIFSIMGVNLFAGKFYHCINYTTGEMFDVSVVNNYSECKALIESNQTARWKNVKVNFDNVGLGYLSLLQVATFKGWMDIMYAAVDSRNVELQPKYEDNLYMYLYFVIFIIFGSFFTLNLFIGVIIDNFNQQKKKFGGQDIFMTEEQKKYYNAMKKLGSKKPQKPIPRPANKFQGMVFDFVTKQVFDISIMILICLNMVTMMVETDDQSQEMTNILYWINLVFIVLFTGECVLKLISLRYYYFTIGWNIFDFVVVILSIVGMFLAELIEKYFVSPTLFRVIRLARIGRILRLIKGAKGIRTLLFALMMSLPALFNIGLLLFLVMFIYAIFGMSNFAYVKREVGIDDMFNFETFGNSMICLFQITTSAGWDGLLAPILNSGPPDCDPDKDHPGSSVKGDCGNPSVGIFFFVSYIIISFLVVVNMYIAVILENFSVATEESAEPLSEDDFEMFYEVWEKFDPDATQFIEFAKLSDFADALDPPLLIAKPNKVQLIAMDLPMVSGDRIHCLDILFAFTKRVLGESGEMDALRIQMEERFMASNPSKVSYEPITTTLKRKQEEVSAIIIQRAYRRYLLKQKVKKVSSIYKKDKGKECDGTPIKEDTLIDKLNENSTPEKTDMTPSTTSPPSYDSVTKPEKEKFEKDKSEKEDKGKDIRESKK
The test is described as above.

The target in test [13] is T12, huNav157chim14 (human).
T12 construct: HEK Flp-In cells; also called huNav157 chimera 14
The experiment in a line: binding FACS, HEK Flp-In.

Test [14] has as its target T13, huNav157chim14-β1-β2-β3 (human).
T13 construct: Whole entry; HEK Flp-In cells; also called huNav157 chimera 14-beta1-beta2-beta3
The experiment in a line: binding FACS, HEK Flp-In.

In test [15] the target is T14, huNav1.5-β1-β2-β3 (human).
T14 construct: Whole entry; CHO Flp-In or HEK Flp-In cells; also called huNav1.5-beta1-beta2-beta3
The experiment in a line: binding FACS, HEK Flp-In.

In test [16] the target is T15, huNav1.7α + β1-β2-β3 (human, UniProt Q15858 1-1988; A5A6L6 19-218; O60939 30-215; Q2KI11 23-215).
T15 construct: also called huNav1.7-beta1-beta2-beta3; huNav1.7-β1-β2-β3
The experiment in a line: FACS, CHO Flp-In, competitor 1 µM IRR00092.

Test [17] deals with T16, rhNav1.7α + β1-β2-β3 (rhesus monkey).
T16 construct: also called rhNav1.7-beta1-beta2-beta3; rhNav1.7-β1-β2-β3
The experiment in a line: FACS, CHO Flp-In, competitor 1 µM IRR00092. For orientation: Flow cytometry measures light scatter and fluorescence of single cells or particles in a stream.

Test [18] has as its target T14, huNav1.5-β1-β2-β3. The experiment in a line: FACS, CHO Flp-In, competitor 1 µM IRR00092.
Test [19] addresses T16, rhNav1.7α + β1-β2-β3. The experiment in a line: FACS, CHO Flp-In, competitor 1 µM F010300703.
For test [20], the target named is T14, huNav1.5-β1-β2-β3. The experiment in a line: FACS, CHO Flp-In, competitor 1 µM F010300703.
Test [21] concerns the target T15, huNav1.7α + β1-β2-β3. The experiment in a line: binding FACS, CHO Flp-In, periplasmic extract.
Test [22] addresses T14, huNav1.5-β1-β2-β3. The experiment in a line: binding FACS, CHO Flp-In, periplasmic extract.
For test [23], the target named is T2, huNav1.7α+β1-β2-β3. The experiment in a line: binding FACS, HEK FlpIn cells. How it is done: as §1, §2
In test [24] the target is T5, huNav157chimera14+β1-β2-β3. The experiment in a line: binding FACS, HEK FlpIn cells. How it is done:
as §1, §2

Test [25] concerns the target T17, huNav1.7(N146S, V194I, F276V, R277Q, E281V, V331M, E504D, D507E, S508N, N533S)-β1-β2-β3 (human, UniProt Q15858 1-1988; Q07699 19-218; O60939 30-215; Q9NY72 23-215).
T17 construct: Transiently on HEK293T cells; The text prints V1941 for V194I; also called chimeric variant of huNav1.7α with all DI huNav1.7α-rhNav1.7α polymorphisms
The experiment in a line: FACS on transiently transfected HEK293T cells. How it is done: as §1
FACS binding studies (as described above) were performed on HEK293T cells transiently transfected with a chimeric variant of huNav1.7α in which all the huNav1.7α-rhNav1.7α polymorphisms of DI are present (N146S, V1941, F276V, R277Q, E281V, V331M, E504D, D507E, S508N, N533S). Replacing the huNav1.7α DI sequence for that of rhNav1.7α is sufficient to abolish the binding of F0103262CO2, F0103265B04, F0103262B06, and F0103265A11 to huNav1.7α, recapitulating the absence of binding on rhNav1.7α (see FIGS. 21A-21B).

As usually defined, the EC50 is the concentration that produces a half-maximal response.

T6 sequence (Q9NY46 whole entry): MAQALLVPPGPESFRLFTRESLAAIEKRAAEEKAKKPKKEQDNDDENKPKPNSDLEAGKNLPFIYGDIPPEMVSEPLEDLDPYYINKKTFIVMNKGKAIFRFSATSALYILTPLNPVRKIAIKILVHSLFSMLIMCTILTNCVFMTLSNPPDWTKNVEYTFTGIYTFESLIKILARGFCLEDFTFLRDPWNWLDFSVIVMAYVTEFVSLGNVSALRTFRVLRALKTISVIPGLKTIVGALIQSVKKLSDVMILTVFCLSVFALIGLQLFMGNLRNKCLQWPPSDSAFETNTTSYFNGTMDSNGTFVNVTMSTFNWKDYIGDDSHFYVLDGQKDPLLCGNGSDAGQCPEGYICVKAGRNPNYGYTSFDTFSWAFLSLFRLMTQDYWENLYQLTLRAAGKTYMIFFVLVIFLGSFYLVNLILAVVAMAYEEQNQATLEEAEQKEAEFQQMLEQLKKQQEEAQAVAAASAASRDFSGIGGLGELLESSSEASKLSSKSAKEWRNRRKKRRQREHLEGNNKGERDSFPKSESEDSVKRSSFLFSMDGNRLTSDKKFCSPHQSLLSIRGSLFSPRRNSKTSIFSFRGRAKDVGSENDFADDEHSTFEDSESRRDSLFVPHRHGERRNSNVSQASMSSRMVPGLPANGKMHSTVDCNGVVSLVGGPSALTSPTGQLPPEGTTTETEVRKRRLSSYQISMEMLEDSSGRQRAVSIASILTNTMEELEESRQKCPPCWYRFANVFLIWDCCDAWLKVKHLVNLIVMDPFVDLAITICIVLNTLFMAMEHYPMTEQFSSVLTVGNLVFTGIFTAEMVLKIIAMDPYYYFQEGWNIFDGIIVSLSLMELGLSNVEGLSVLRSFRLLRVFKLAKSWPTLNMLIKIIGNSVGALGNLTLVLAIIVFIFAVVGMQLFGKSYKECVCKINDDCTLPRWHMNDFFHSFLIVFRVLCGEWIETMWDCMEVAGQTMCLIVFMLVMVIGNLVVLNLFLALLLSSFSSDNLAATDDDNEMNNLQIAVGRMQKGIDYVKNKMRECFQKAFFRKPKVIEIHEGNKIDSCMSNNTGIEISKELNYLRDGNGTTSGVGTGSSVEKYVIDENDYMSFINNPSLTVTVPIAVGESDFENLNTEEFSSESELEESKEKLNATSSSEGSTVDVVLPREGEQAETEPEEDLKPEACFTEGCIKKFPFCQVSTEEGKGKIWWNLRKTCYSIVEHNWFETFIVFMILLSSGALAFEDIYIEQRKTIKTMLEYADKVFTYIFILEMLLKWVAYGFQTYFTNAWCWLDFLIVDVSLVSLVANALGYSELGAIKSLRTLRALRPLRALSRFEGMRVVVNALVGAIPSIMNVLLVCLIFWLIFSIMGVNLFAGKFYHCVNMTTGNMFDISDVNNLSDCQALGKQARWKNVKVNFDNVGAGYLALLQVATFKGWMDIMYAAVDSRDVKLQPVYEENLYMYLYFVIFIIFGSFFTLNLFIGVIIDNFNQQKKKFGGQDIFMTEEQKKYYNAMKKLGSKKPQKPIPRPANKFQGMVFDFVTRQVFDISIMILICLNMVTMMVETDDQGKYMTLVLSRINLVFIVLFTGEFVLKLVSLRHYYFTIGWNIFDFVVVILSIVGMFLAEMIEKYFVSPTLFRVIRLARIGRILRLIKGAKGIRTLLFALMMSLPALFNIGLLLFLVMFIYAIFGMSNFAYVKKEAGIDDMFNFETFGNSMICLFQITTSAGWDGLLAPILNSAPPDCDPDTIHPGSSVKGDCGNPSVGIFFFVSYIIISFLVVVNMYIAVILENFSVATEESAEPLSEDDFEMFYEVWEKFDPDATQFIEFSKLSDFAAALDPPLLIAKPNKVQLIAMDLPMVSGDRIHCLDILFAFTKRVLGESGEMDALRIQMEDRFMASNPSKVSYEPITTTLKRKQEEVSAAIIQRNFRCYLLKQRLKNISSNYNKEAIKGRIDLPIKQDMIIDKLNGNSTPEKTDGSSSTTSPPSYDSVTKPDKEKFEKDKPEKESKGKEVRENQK

B1: F0103464B09 (parental)-FLAG-HIS6 (VHH)
VHH: EVQLVESGGGLVQPGGSLRLSCATTSRAFIRDVFTGWYRRVPGKERELVARIYNGGNTNYADFAKGRFSISRDNAKKMVTLRMSNLKPEDTGVYYCLFSGTINTGREYRSGDYWGQGTLVTVSS
notes: also called F103464B09
With B1, the values for the EC50 in [1], in [2] and in [3] were 4.1 nM, 4.1 nM and 27 nM, respectively. Moreover, the binding result in test [4] is “no binding”; in [5], “binds”; in [6] it was “no binding”; in [7], “no binding”; in test [8], “no binding”; in [9] it was “no binding”. Further, the binding result in test [10], in [11] and in [12] was “no binding” in each case.

B2: F0103PMP505D08 (bispecific antibody)
chain: EVQLVESGGGLVQPGGSLRLSCAASGSIFNINSMAWYRRAPGKQRELVASSTNGGSTNYADSVKGRFTISRDNAKRVYLQMNSLTPEDTAVYYCRALLQPSIYDISRTYWGQGTLVTVSSGGGGSGGGGSGGGGSGGGGSGGGGSGGGGSGGGGSGGGGSGGGGSGGGGSEVQLVESGGGLVQAGGSLRLSCVTSGRTSDLSTMNWFRQAPGKEREFVARITRRGSTYYAESVKERFIISRDNAKNTVYLQMNSLKPEDTANYYCTAASEMGYHYRGQGTQVTVSSAAADYKDHDGDYKDHDIDYKDDDDKGAAHHHHHHKAAGGGGG
notes: crude periplasmic extract; also called F103275B05(N93R)-50GS-F0103505D08 bivalent ISVD
In the case of B2, the MFI in test [13] was 78400 MFI; in test [14], 136000 MFI; in test [15] it was 1200 MFI; in [16], 95400 MFI; in [17], 108000 MFI; in test [18] it was 964 MFI. The MFI in test [19] came out at 22500 MFI; in test [20], 845 MFI; in [21], 106000 MFI; in test [22] it was 891 MFI.

B3: F0103PMP495F09 (bispecific antibody)
chain: EVQLVESGGGLVQPGGSLRLSCAASGSIFNINSMAWYRRAPGKQRELVASSTNGGSTNYADSVKGRFTISRDNAKRVYLQMNSLTPEDTAVYYCRALLQPSIYDISRTYWGQGTLVTVSSGGGGSGGGGSGGGGSGGGGSGGGGSGGGGSGGGGSGGGGSGGGGSGGGGSEVQLVESGGGLVQAGSSLSLSCAASGRALSTYAMGWFRQAPGKEREFVARISRSGITTYYTDSVKGRFTISRDRAKDTVYLQMNSLKPEDTAIYLCAADASTNPAGYYLRNRYDYWGQGTLVTVSSAAADYKDHDGDYKDHDIDYKDDDDKGAAHHHHHHKAAGGGGG
notes: crude periplasmic extract; also called F103275B05(N93R)-50GS-F0103495F09 bivalent ISVD
On to B3, for which the MFI in [13] turned out to be 45100 MFI; in test [14], 128000 MFI; in test [15], 976 MFI; in test [16], 93300 MFI; in [17] it was 90400 MFI; in test [18] it was 930 MFI. In addition, the MFI is 6280 MFI in [19], 645 MFI in test [20], 35600 MFI in test [21] and 483 MFI in test [22].

B4: F0103262C02 (parental)-FLAG-HIS6 (VHH)
VHH: EVQLVESGGGLVQAGGSLTLSCAASGLPFGLYILGWIRRAPGKERDFVAAISRSGRDTVYANSVKGRFTISRDNAKNMVYLRMDNLRPEDTAAYYCAVDSVPRGTPTITESEYAIWGQGTLVTVSS
notes: also called F0103262CO2; F103262CO2
B4: the EC50 stood at 180 nM in test [1], 320 nM in test [2], 380 nM in [23] and 470 nM in [24]. Further, the binding result is listed as “no binding” in [3]; “no binding” in test [4]; “no binding (tested: 1 µM)” in test [25]; “no binding” in test [6]; “no binding” in test [7]; “no binding” in test [8]. Besides, the binding result in test [9], in [10], in [11] and in test [12] was “no binding” each time.

B5: F0103PMP500E03 (bispecific antibody)
chain: EVQLVESGGGLVQPGGSLRLSCAASGSIFNINSMAWYRRAPGKQRELVASSTNGGSTNYADSVKGRFTISRDNAKRVYLQMNSLTPEDTAVYYCRALLQPSIYDISRTYWGQGTLVTVSSGGGGSGGGGSGGGGSGGGGSGGGGSGGGGSGGGGSGGGGSGGGGSGGGGSEVQLVESGGGLVQAGGSLRLSCAASGRTFSRYQMGWFRQAPGKEREFVAYISWSGSTRYVDSVKGRFTISRDNAKNTVYLQMNSLKPEDTAVYHCAAGTAGIISSRPETYDSWGQGTQVTVSSAAADYKDHDGDYKDHDIDYKDDDDKGAAHHHHHHKAA
notes: crude periplasmic extract; also called F103275B05(N93R)-50GS-F0103500E03 bivalent ISVD
For B5, the MFI in test [13] amounted to 47300 MFI; in [14], 87200 MFI; in test [15] it was 1110 MFI; in test [16], 33700 MFI; in [17] it was 96900 MFI; in test [18] it was 975 MFI. Moreover, the MFI in [19] was found to be 21500 MFI; in test [20], 852 MFI; in test [21], 22400 MFI; in test [22], 521 MFI.
